Patent US20220135694A1, “NOVEL CD40-BINDING ANTIBODIES” (LAVA THERAPEUTICS B.V., priority 2019, published 2022)
Each block holds one molecule with its values, some of them ahead of it.

How the values were obtained:
[1] = target: T1, CD40 (Homo sapiens, UniProt P25942); assay: CD40 agonistic activity in primary CLL cells, 48 h, flow cytometry; type: cell-based; conditions: for CD40 stimulation (viability, CD86 and CD95 expression): various concentrations, FIG. 3A-C
T1 construct: Primary chronic lymphocytic leukemia (CLL) cells express CD40 on the cell surface; endogenous in cells; host or cells: primary CLL PBMCs from untreated CLL patients
Experimental: PBMCs (≥90% CD5^+CD19^+) from untreated CLL patients were obtained and cryopreserved as described in Example 3. Thawed cells were kept in complete IMDM.
To assess whether binding of the VHH to CD40 has agonistic effects, primary CLL PBMCs were cultured for 48 hours in the presence of VHH, medium control or recombinant multimeric CD40 ligand (rmCD40L; 100 ng/mL, Bioconnect).
After 48 hours, cells were harvested, washed and incubated with AF700-conjugated anti-CD19 (557921), FITC-conjugated anti-CD80 (6109965), APC-conjugated anti-CD86 (555660, all BD Biosciences), PE-conjugated anti-CD5 (12-0059-42, Thermo Fisher Scientific) and PECy7-conjugated anti-CD95 (305621, Biolegend, San Diego, Calif., USA) antibodies for 20 minutes at 4° C. Alternatively, after 48 hours, cells were harvested and viability was measured using Mitotracker Orange (25-minute incubation at 37° C.) and To-pro-3 (10-minute incubation at room temperature; both Thermo Fisher Scientific). Samples were measured on a FACSCanto cytometer (BD Biosciences) and analyzed with Flowjo MacV10.
To assess whether binding of the VHH has agonistic effects, primary CLL PBMCs were cultured with the indicated concentrations of V19S76K-5C8, medium control or rmCD40L for 48 hours and analyzed by flow cytometry as described in Example 4.

[2] = target: T2, human CD40 (CD40-transfected HEK293T cells) (Homo sapiens, UniProt P25942); assay: Monovalent VHH binding to CD40-transfected HEK293T cells, Myc-tag flow cytometry; conditions: for average geometric mean fluorescence intensity (Myc-tag): CD40-transfected HEK293T cells, 2 experiments
T2 construct: expressed in transfected cells; host or cells: HEK293T
Experimental: The embryonic kidney cell line HEK293T, either wildtype (WT) or transfected with human CD40, was grown in Dulbecco's Modified Eagle Medium (41965-039, Thermo Fisher Scientific, Waltham, Mass., USA), supplemented with 10% fetal calf serum (F7524, Merck, Kenilworth, N.J., USA), 200 mM L-glutamine (25030-123, Thermo Fisher Scientific), 0.05 mM β-mercapto-ethanol (M6250, Merck) and 10,000 U/mL penicillin/streptomycin (15140-122, Thermo Fisher Scientific), hereafter referred to as complete DMEM.
CD40 expression on CD40-transfected cells was confirmed by incubation with a PE-conjugated anti-CD40 antibody (IM1936U, Beckman Coulter, Brea, Calif., USA) for 20 minutes at 4° C. […] Bound VHH was detected by sequential incubation with mouse-anti-Myc tag (05-274, Merck) and AF488-conjugated goat-anti-mouse (A-11001, Thermo Fisher Scientific) antibodies for 20 minutes at 4° C.
Samples were measured on a FACSCanto cytometer (BD Biosciences, Franklin Lakes, N.J., USA) and analyzed with Flowjo MacV10.

[3] = target: human CD40 (human, UniProt P25942 21-277); assay: cell-based or functional assay
[4] = target: T1, CD40; assay: CD40 antagonistic activity in primary CLL cells: pre-incubation, then rmCD40L for 48 h; type: cell-based; conditions: 30 min pre-incubation, then rmCD40L 100 ng/mL for 48 hours; FIG. 4A-C
Experimental: PBMCs (≥90% CD5^+CD19^+) from untreated CLL patients were obtained and cryopreserved as described in […]. Thawed cells were kept in complete IMDM.
To test whether the VHH antagonizes CD40 stimulation, primary CLL PBMCs were pre-incubated with VHH or medium control for 30 minutes at 37° C. and subsequently cultured for 48 hours in the presence of rmCD40L (100 ng/mL).
After 48 hours, cells were analyzed by flow cytometry as described in Example 4.
To assess whether binding of the VHH has antagonistic effects, primary CLL PBMCs were pre-incubated with V19S76K-5C8 or medium control and then cultured with rmCD40L for 48 hours and analyzed by flow cytometry as described in Example 5.

T1 sequence (P25942 21-277): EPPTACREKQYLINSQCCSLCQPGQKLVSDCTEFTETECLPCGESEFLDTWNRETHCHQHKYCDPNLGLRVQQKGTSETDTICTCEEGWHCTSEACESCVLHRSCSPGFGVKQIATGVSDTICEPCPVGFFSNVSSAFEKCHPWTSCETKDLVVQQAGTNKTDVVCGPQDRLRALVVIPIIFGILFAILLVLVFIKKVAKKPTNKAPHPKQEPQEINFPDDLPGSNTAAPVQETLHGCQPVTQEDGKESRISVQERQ
Chain of human CD40 (P25942 21-277 limits assumed): as the sequence (P25942 21-277) above
T2 sequence (P25942 21-277): as above

CD40 stimulation (expression of CD80, CD86 and CD95) ([1]; FIG. 7A-C): effectively induced CD40 stimulation
Molecule: rmCD40L: recombinant multimeric CD40 ligand, 100 ng/mL, Bioconnect [reference compound]
CD40 stimulation (viability, CD86 and CD95 expression) [1]: effectively induced CD40 stimulation

binding affinity to CD40 after S76K mutation, relative to V19t [2]: retained | average geometric mean fluorescence intensity (Myc-tag) ([2]; VHH concentration 1 pM): 4790 | average geometric mean fluorescence intensity (Myc-tag) ([2]; VHH concentration 10 pM): 4949 | average geometric mean fluorescence intensity (Myc-tag) ([2]; VHH concentration 100 pM): 5502 | average geometric mean fluorescence intensity (Myc-tag) ([2]; VHH concentration 1 nM): 7906 | average geometric mean fluorescence intensity (Myc-tag) ([2]; VHH concentration 10 nM): 9283 | average geometric mean fluorescence intensity (Myc-tag) ([2]; VHH concentration 100 nM): 17062
B1: V19S76Kt: V19t VHH in which serine at position 76 (putative glycosylation site) was altered into lysine, SEQ ID NO:22 (protein)
VHH: QVQLQESGGGLVQAGGSLRLSCAASGRTFGRSAMGWFRQAPGKEREFVAAIGTRGGSTKYADSVKGRFTISTDNAKNTVYLQMDSLKPEDTAVYRCAVRGPGYPSAAIFQDEYHYWGQGTQVTVSSGLEGHSDHMEQKLISEEDLNRISDHHHHHH
modifications: antibody sequence

B2: V19-5C8t (bispecific antibody)
chain: QVQLQESGGGLVQAGGSLRLSCAASGRTFGRSAMGWFRQAPGKEREFVAAIGTRGGSTKYADSVKGRFTISTDNASNTVYLQMDSLKPEDTAVYRCAVRGPGYPSAAIFQDEYHYWGQGTQVTVSSGGGGSEVQLVESGGGLVQAGGSLRLSCAASGRPFSNYAMGWFRQAPGKEREFVAAISWSGGSTSYADSVKGRFTISRDNAKNTVYLQMNSPKPEDTAIYYCAAQFSGADYGFGRLGIRGYEYDYWGQGTQVTVSSGLEGHSDHMEQKLISEEDLNRISDHHHHHH
lysis of primary CLL cells by Vγ9Vδ2-T cells (specific cell death) at 100 nM [3]: 68.5%

binding to CD40-expressing cells ([2]; detection of the Myc tag, FIG. 1B): bound to the CD40-expressing cells
B3: V12t: monovalent anti-CD40 VHH V12 with C-terminal Myc- and His6-tag, SEQ ID NO:36 (protein)
VHH: QVQLQESGGGLVQAGGSLRLSCAASGLVFKRYSMNWYRQPPGQQRGLVASISDSGVSTNYADSVKGRFTISRDNAKNIGYLQMNSLKPEDTAVYYCNMHTFWGQGTQVTVSSGLEGHSDHMEQKLISEEDLNRISDHHHHHH
modifications: antibody sequence
CD40 stimulation (viability, CD86 and CD95 expression) [1]: did not induce any of these effects | prevention of CD40L-induced CD40 stimulation (viability, CD86 and CD95 expression) [4]: did not block CD40L-induced effects

B4: V15-5C8t (bispecific antibody)
chain: EVQLQESGGGLVQAGGSLRLSCVTSGSAFSSDTMGWFRQAPGKQRELVASISSRGVREYADSVKGRFTISRDNAKNTVYLQMNSLQPEDTAVYYCNRGALGLPGYRPYNNWGQGTQVTVSSGGGGSEVQLVESGGGLVQAGGSLRLSCAASGRPFSNYAMGWFRQAPGKEREFVAAISWSGGSTSYADSVKGRFTISRDNAKNTVYLQMNSPKPEDTAIYYCAAQFSGADYGFGRLGIRGYEYDYWGQGTQVTVSSGLEGHSDHMEQKLISEEDLNRISDHHHHHH
lysis of primary CLL cells by Vγ9Vδ2-T cells (specific cell death) at 100 nM [3]: 70.5%

B5: V12-5C8t (bispecific antibody)
chain: QVQLQESGGGLVQAGGSLRLSCAASGLVFKRYSMNWYRQPPGQQRGLVASISDSGVSTNYADSVKGRFTISRDNAKNIGYLQMNSLKPEDTAVYYCNMHTFWGQGTQVTVSSGGGGSEVQLVESGGGLVQAGGSLRLSCAASGRPFSNYAMGWFRQAPGKEREFVAAISWSGGSTSYADSVKGRFTISRDNAKNTVYLQMNSPKPEDTAIYYCAAQFSGADYGFGRLGIRGYEYDYWGQGTQVTVSSGLEGHSDHMEQKLISEEDLNRISDHHHHHH
lysis of primary CLL cells by Vγ9Vδ2-T cells (specific cell death) at 100 nM [3]: 45.3%
